Data: article doi:10.1101/831339

T1: PratA (Synechocystis sp. PCC 6803, UniProt P73091 39-383)
T1 sequence: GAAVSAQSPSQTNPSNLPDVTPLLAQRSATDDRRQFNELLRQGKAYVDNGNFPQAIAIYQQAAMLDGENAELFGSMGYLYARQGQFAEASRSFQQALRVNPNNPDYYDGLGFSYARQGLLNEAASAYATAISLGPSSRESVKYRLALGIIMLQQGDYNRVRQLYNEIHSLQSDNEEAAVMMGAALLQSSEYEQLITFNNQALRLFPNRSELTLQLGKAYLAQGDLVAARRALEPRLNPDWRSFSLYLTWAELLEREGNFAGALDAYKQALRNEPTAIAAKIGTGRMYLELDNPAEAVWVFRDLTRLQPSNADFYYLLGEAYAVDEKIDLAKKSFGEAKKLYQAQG


Experiments:
Experiment in all cases: MST
DLA2 ΔCat 462 = DLA2 ΔCat 462 (Chlamydomonas reinhardtii, UniProt A0A2K3DW88 32-461)
DLA2 ΔCat 315 = DLA2 ΔCat 315 (Chlamydomonas reinhardtii, UniProt A0A2K3DW88 32-314)
DLA2 ΔCat 450 = DLA2 ΔCat 450 (Chlamydomonas reinhardtii, UniProt A0A2K3DW88 32-449)
PratA = molecular target: T1, PratA
DLA2 ΔCat 394 = DLA2 ΔCat 394 (Chlamydomonas reinhardtii, UniProt A0A2K3DW88 32-393)
DLA2 ΔLip = DLA2 ΔLip (Chlamydomonas reinhardtii, UniProt A0A2K3DW88 116-494)
DLA2 ΔCat = DLA2 ΔCat (Chlamydomonas reinhardtii, UniProt A0A2K3DW88 32-269)
DLA2 WT (MST) = DLA2 WT (MST) (Chlamydomonas reinhardtii, UniProt A0A2K3DW88 32-494)
DLA2 ΔE3B = DLA2 ΔE3B (Chlamydomonas reinhardtii, UniProt A0A2K3DW88 32-184+=VD+224-494, internal_change)

Binder	Kd (DLA2 ΔCat 462) [nM]	Kd (DLA2 ΔCat 315) [nM]	Kd (DLA2 ΔCat 450) [nM]	binding result (PratA)	Kd (DLA2 ΔCat 394) [nM]	Kd (DLA2 ΔLip) [nM]	Kd (DLA2 ΔCat) [nM]	Kd (DLA2 WT (MST)) [nM]	Kd (DLA2 ΔE3B) [nM]
UUUACGGAGAAAUUAAAACUUUAAAAAAAUUAACAUAUGACCAUGGAUC (ssRNA) [psbA 5'-UTR probe native]	427 ± 55	607 ± 82	466 ± 65	no binding	558 ± 77	107 ± 20	911 ± 60	106 ± 24	241 ± 21
UUUACGGAGAAAUUAAAACUUUCCCCCCCCCCCCAUAUGACCAUGGAUC (ssRNA) [psbA 5'-UTR C-stretch probe]	625 ± 75	–	–	–	–	–	–	248 ± 54	244 ± 43
